Patent publication US20240034796A1 (GENUV, published 2024)

Key:
[1] = biological target: T1, human PD-1 expressed on CHO-S cells (human, UniProt Q15116 25-288); test: cell-based ELISA on CHO-S cells expressing human PD-1
T1 construct: CHO-S cells transfected with pCMV3-C-FLAG vector (Sino) holding human PD-1 cDNA; also called cell surface human PD-1; hPD-1
Description: (§1) To summarize the ELISA analysis, 10,000 CHO-S cells expressing either human PD-1 or mouse PD-1 were coated in a collagen-coated 96-well plate (Thermo scientific) overnight in an incubator at 37° C. The coated cells were fixed with 8% paraformaldehyde at room temperature for 15 minutes.
(§2) After washing, a secondary antibody was added and incubated overnight at 4° C. […] After washing, TMB substrate (abcam) was added, and the color reaction was stopped with STOP solution (abcam). Absorbance at 450/650 nm was measured using a microplate reader (ThermoFisher).

[2] = biological target: T1, human PD-1 expressed on CHO-S cells; test: cell-based ELISA on fixed CHO-S cells expressing human PD-1
[3] = biological target: T2, human PD-1 protein (human, UniProt Q15116 25-167, limits assumed); test: SPR, Biacore 8K, antibody captured on Protein A chip, human PD-1 as analyte
T2 construct: also called human PD-1 antigen

[4] = biological target: T2, human PD-1 protein; test: SPR, Biacore 8K, antibody captured on Protein A chip, human PD-1 as analyte, pH 7.4
[5] = biological target: T2, human PD-1 protein; test: SPR, Biacore 8K, antibody captured by anti-human IgG on CM5, human PD-1 as analyte
Description: Anti-human IgG antibody was immobilized on a CM5 chip (Cytiva) via amine coupling. […] Human PD-1 and running buffer at a concentration of 0-100 nM (0, 6.25, 12.5, 25, 50, 100 nM) were flowed onto the sensor chip at a flow rate of 30 μl/min for an association phase of 120 s, which was followed by a dissociation phase of 900 s. The chip was regenerated with glycine at pH 1.5 after each experiment. Association and dissociation curves were drawn using Cytiva evaluation software, and kinetics and affinity values were determined.

[6] = biological target: T2, human PD-1 protein; test: SPR, Biacore 8K, antibody captured on Protein A chip, human PD-1 as analyte, HBS-EP+ at pH 6.0
Description: (§3) The binding kinetics of each antibody to human PD-1 were measured through SPR (Surface Plasma Resonance) analysis using Biacore 8K (Cytiva), and the antibodies' binding affinities to the antigen were compared to one another.
(§4) Seven concentrations ([…]) of human PD-1 were flowed onto the sensor chip at a flow rate of 30 μL/min for an association phase of 120 s, followed by dissociation for 1800 s. Capture, association, and dissociation were performed in HBS-EP+buffer at pH 6.0. The chip was regenerated with glycine at pH 1.5 after each experiment. Association and dissociation curves were drawn using Cytiva evaluation software, and kinetics and affinity values were determined.

[7] = biological target: T2, human PD-1 protein; test: SPR (Biacore 8K), ratio between the values at pH 7.4 and pH 6.0, human PD-1 as analyte
Description: as §3, §4

[8] = biological target: T3, mouse PD-1 expressed on CHO-S cells (mouse, UniProt Q02242 25-288); test: cell-based ELISA on CHO-S cells expressing mouse PD-1
T3 construct: whole, on cells; also called cell surface mouse PD-1; mPD-1
T3 sequence (looked up): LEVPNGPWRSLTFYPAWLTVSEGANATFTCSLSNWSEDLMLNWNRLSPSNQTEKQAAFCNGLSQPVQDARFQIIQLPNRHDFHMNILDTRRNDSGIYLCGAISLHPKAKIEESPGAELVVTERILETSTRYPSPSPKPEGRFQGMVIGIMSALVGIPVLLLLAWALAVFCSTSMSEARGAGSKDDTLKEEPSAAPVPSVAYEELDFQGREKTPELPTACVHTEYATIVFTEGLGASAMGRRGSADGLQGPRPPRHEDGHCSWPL
Description: as §1, §2

[9] = biological target: human BTLA protein (human, UniProt Q7Z6A9 31-157, limits assumed); test: protein-based ELISA, coated human BTLA, hybridoma supernatant
Description: (§5) Human PD-1, CD28, CTLA-4, ICOS, and BTLA proteins were coated in 96-well plates (Nunc) overnight at 4° C. […] After washing, a secondary antibody was added and incubated at 37° C. for 2 hours. […] After washing, TMB substrate (abcam) was added, and the color reaction was stopped with STOP solution (abcam). Absorbance at 450/650 nm was measured using a microplate reader (ThermoFisher).

[10] = biological target: human CD28 protein (human, UniProt P10747 19-152); test: protein-based ELISA, coated human CD28, hybridoma supernatant
Description: as §5

[11] = biological target: T4, human ICOS protein (human, UniProt Q9Y6W8 21-140); test: protein-based ELISA, coated human ICOS, hybridoma supernatant
T4 sequence (looked up): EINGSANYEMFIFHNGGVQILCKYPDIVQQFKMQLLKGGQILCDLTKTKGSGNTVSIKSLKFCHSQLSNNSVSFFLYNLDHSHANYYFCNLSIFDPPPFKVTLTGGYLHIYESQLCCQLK
Description: as §5

[12] = biological target: human CTLA-4 protein (human, UniProt P16410 36-161); test: protein-based ELISA, coated human CTLA-4, hybridoma supernatant
Description: as §5

[13] = biological target: T1, human PD-1 expressed on CHO-S cells; test: cell-based ELISA on CHO-S cells expressing human PD-1; EC50 against Keytruda and Opdivo
Description: as §1, §2

[14] = biological target: T1, human PD-1 expressed on CHO-S cells; test: cell-based ELISA on fixed CHO-S cells expressing human PD-1, hybridoma supernatant
Description: (§6) To summarize the ELISA assay, 10,000 CHO-S cells expressing human or mouse PD-1 were coated in collagen-coated 96-well plates (ThermoFisher) overnight at 37° C. The coated cells were fixed with 8% paraformaldehyde at room temperature for 15 minutes. […] After washing, secondary antibody was added and incubated overnight at 4° C. […] After washing, TMB substrate (abcam) was added, and the color reaction was stopped with STOP solution (abcam). Absorbance at 450/650 nm was measured using a microplate reader (ThermoFisher).

[15] = biological target: T3, mouse PD-1 expressed on CHO-S cells; test: cell-based ELISA on fixed CHO-S cells expressing mouse PD-1, hybridoma supernatant
Description: as §6

[16] = biological target: T2, human PD-1 protein; test: SPR, binding kinetics to human PD-1; parent run 1
[17] = biological target: T2, human PD-1 protein; test: SPR, binding kinetics to human PD-1; parent run 2
[18] = biological target: T5, extracellular domain (ECD) PD-1 protein from mouse (mouse, UniProt Q02242 25-169); test: protein-based ELISA, coated PD-1 ECD, antibody at 1 ug/ml
T5 construct: extracellular domain; also called mouse PD-1 antigen
T5 sequence (looked up): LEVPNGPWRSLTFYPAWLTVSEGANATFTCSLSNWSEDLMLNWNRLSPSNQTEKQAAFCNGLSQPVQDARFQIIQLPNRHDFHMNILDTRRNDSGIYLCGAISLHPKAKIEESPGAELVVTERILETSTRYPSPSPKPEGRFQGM
Description: To determine the cross-reactivity of the antibody to PD-1 antigens, protein-based ELISA was performed. To summarize the ELISA analysis, a 96-well plate (Thermo scientific) was coated with 10 ng of the extracellular domain (ECD) PD-1 proteins from human, mouse, rabbit, cynomolgus, and rat overnight at 4° C. […] After washing, a secondary antibody (anti-human IgG antibody) was added and incubated at 37° C. for 2 hours. After washing, TMB substrate (abcam) was added, and the color reaction was stopped with STOP solution (abcam). Absorbance at 450/650 nm was measured using a microplate reader (ThermoFisher).

[19] = biological target: T6, human PD-1 with P130 mutated to alanine (human, UniProt Q15116 25-288, limits assumed); test: alanine scanning, high-throughput flow cytometry
T6 construct: Alanine scanning mutant, expressed and analysed by high-throughput flow cytometry; the construct is not described further
Description: (§7) Selected amino acid residues of PD-1 were mutated to alanine using PCR mutagenesis.

[20] = biological target: T7, human PD-1 with L128 mutated to alanine (human, UniProt Q15116 25-288, limits assumed); test: alanine scanning, high-throughput flow cytometry
T7 construct: Alanine scanning mutant, expressed and analysed by high-throughput flow cytometry; the construct is not described further
Description: as §7

[21] = biological target: T8, human PD-1 with I126 mutated to alanine (human, UniProt Q15116 25-288, limits assumed); test: alanine scanning, high-throughput flow cytometry
T8 construct: Alanine scanning mutant, expressed and analysed by high-throughput flow cytometry; the construct is not described further
Description: as §7

T2 sequence (Q15116 25-167 limits assumed): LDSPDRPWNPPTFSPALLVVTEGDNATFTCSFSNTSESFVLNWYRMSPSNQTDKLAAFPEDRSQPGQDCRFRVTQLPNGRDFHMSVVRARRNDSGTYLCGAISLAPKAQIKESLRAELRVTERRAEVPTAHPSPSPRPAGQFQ
T1 sequence (Q15116 25-288 limits assumed): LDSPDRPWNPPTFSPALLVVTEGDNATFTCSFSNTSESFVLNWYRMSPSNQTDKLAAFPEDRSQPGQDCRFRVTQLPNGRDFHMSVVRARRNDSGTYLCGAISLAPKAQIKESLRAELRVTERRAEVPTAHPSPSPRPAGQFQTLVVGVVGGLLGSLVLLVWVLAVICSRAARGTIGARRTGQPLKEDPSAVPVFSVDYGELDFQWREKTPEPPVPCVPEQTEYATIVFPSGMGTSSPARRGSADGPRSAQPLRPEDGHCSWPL
T8 sequence (Q15116 other isoform, or with tags, fused parts or gaps limits assumed, change not shown): as the sequence (Q15116 25-288 limits assumed) above, with I102A counted along it
T7 sequence (Q15116 other isoform, or with tags, fused parts or gaps limits assumed, change not shown): as the sequence (Q15116 25-288 limits assumed) above, with L104A counted along it
T6 sequence (Q15116 other isoform, or with tags, fused parts or gaps limits assumed, change not shown): as the sequence (Q15116 25-288 limits assumed) above, with P106A counted along it
Sequence of human CTLA-4 protein (P16410 36-161 limits assumed): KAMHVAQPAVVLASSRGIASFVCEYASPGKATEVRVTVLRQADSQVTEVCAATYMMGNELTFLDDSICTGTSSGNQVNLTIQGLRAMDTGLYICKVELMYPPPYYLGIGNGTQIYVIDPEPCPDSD

Molecule: Keytruda (antibody)
- EC50 [1]: 0.154 nM
- EC50 (read off the curve) [2]: 0.05 µg/mL
- Kd [3]: 7.06 nM
- Kd [4]: 6.6 nM
- Kd [5]: 6.33 nM

B1: 2E5 antibody (antibody, V domains shown)
VH: QVQLVQSGAEVKKPGSSVKVSCKASGFTFTTYYISWVRQAPGQGLEYLGYINMGSGGTNYNEKFKGRVTITADKSTSTAYMELSSLRSEDTAVYYCAIIGYFDYWGQGTMVTVSS
VL: DVVMTQSPLSLPVTLGQPASISCRSSQSLLDSDGGTYLYWFQQRPGQSPRRLIYLVSTLGSGVPDRFSGSGSGTDFTLKISRVEAEDVGVYYCMQLTHWPYTFGQGTKLEIK
- Kd [4]: 12.6 nM
- Kd [6]: 4.5 nM
- Ratio(PH 7.4 vs PH6) KD [7]: 2.8
- Ratio(PH 7.4 vs PH6) ka [7]: 3.4
- Ratio(PH 7.4 vs PH6) kd [7]: 0.8

B2: hybridoma 1G1 antibody (antibody, V domains shown)
VH: EVQLQQSGAELVKPGASVKLSCKASGYTFTGYWMHWVKQRPGQGLEWIGMIHPNSDTTTYNEKFKNRATLTVDKSSGTAYMQLSSLTSEDSAVYYCTGTDQAAWFAFWGQGTLVTVSA
VL: DIVLTQTPLSLPVSLGDQASISCRSSQNIVHSNGDTYLEWYLQKPGQSPKLLIYKVSKRFSGVPDRFSGSGSGTDFTLKISRVEAEDLGVYYCFQGSHVPWTFGGGTKLEIK
notes: Mouse antibody from the hybridoma, used as culture supernatant or Protein G purified; IgG1 reverse primer used for VH); also called 1G1 hybridoma antibody; monoclonal cell (hybridoma) 1G1 antibody
- EC50 [1]: 0.0281 nM
- EC50 [8]: 0.0317 nM
- binding result [9]: no binding
- binding result [10]: no binding
- binding result [11]: no binding
- binding result [12]: no binding
- fold improved binding activity compared to Keytruda and Opdivo [13]: ~5 fold
- EC50 (read off the curve) [14]: ~0.01 µg/mL
- EC50 (read off the curve) [15]: ~0.01 µg/mL

B3: humanized antibody 1G1-h70 (antibody, V domains shown)
VH: QVQLVQSGAEVKKPGASVKVSCKASGYTFTGYWMHWVRQAPGQGLEWIGMIHPNSDTTTYNEKFKNRVTMTRDTSISTAYMELSRLRSDDTAVYYCAGTDQAAWFAFWGQGTTVTVSS
VL: DIVMTQTPLSLSVTPGQPASISCRSSQNIVHSQGDTYLEWYLQKPGQSPQLLIYKVSKRFSGVPDRFSGSGSGTDFTLKISRVEAEDVGVYYCFQGSHVPWTFGGGTKVEIKR
notes: hIgG4 heavy chain, human kappa light chain; also called 1G1-h70 parent antibody (WT); U299-WTI
- Kd [16]: 2.32 nM
- koff [16]: 0.000402 s⁻¹
- kon [16]: 174000 M⁻¹ s⁻¹
- Kd [17]: 2.17 nM
- koff [17]: 0.000412 s⁻¹
- kon [17]: 190000 M⁻¹ s⁻¹
- binding result [18]: binds
- Kd [4]: 5.4 nM
- Kd [6]: 0.9 nM
- Ratio(PH 7.4 vs PH6) KD [7]: 5.8
- Ratio(PH 7.4 vs PH6) ka [7]: 2.3
- Ratio(PH 7.4 vs PH6) kd [7]: 2.7

B4: chimeric 1G1 antibody (antibody, human IgG4 S228P, kappa, V domains shown)
VH: EVQLQQSGAELVKPGASVKLSCKASGYTFTGYWMHWVKQRPGQGLEWIGMIHPNSDTTTYNEKFKNRATLTVDKSSGTAYMQLSSLTSEDSAVYYCTGTDQAAWFAFWGQGTLVTVSA
VL: DIVLTQTPLSLPVSLGDQASISCRSSQNIVHSNGDTYLEWYLQKPGQSPKLLIYKVSKRFSGVPDRFSGSGSGTDFTLKISRVEAEDLGVYYCFQGSHVPWTFGGGTKLEIKR
notes: signal peptide not part of the entries; also called 1G1 chimeric; 1G1-chimeric
- binding activity relative to the wild-type antigen [19]: ≤ 50%
- binding activity relative to the wild-type antigen [20]: ≤ 50%
- binding activity relative to the wild-type antigen [21]: ≤ 50%
- Kd [5]: 3.35 nM
- koff [5]: 0.000749 s⁻¹
- kon [5]: 223000 M⁻¹ s⁻¹
